Test results published in patent publication US20070081975A1.

Target: recombinant human IL-18 (human) (UniProt Q14116)
Experiment: cell-based or functional assay

Chain of recombinant human IL-18 (human) (Q14116 37-193 limits assumed): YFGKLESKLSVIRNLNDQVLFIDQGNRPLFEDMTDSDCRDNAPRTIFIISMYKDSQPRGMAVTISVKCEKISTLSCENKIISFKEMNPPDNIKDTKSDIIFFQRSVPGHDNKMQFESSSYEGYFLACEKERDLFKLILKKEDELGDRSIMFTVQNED

| IFN-γ (ng/ml); bioassay with human IL-18 (20 ng/ml), LPS (2 µg/ml) and murine splenocytes (control 7.5) [ng/mL] | Substance |
| --- | --- |
| 0 | His6-tagged IL-18BPa transiently expressed in COS7 cells (IL-18BP-His6) (from UniProt O95998 31-194) |
| 0 | PNGase-treated IL-18BP-His6 (deglycosylated IL-18BPa-His6) (from UniProt O95998 31-194) |
